The values that follow come from paper PMC11742385, “Selection and Characterization of a DNA Aptamer Recognizing High Mobility Group Box 1 Protein (HMGB1) and Enhancing Its Pro-inflammatory Activity”.

As usually defined, the Kd is the constant that tells how readily two partners part at equilibrium.

The target of series [1] is rhHMGB1 (Homo sapiens, UniProt P09429 1-215). Kind of series: microplate aptamer binding assay (streptavidin-HRP); 1 mM Mg2+, 1 mM Ca2+; SHMCK: 20 mM Hepes, 120 mM NaCl, 5 mM KCl, 1 mM MgCl2, 1 mM CaCl2, pH 7.4, 37 C, 1 h; protein coated 2 pmol/well, 3% BSA block, PBST washes. The conditions noted are these: protein: recombinant; tags: His tag implied (pET28a, Ni-NTA); predicted hairpin (9-50) and stem-loops (52-69) linked by a T.

Series [2] concerns the target T1, rhHMGB1 A box (Homo sapiens, UniProt P09429 9-79).
T1 sequence: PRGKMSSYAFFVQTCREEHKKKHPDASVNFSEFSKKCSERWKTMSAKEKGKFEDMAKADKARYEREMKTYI
Kind of series: microplate aptamer binding assay; dot blot; 1 mM Mg2+, 1 mM Ca2+; 5 nM aptamer (microplate); SHMCK: 20 mM Hepes, 120 mM NaCl, 5 mM KCl, 1 mM MgCl2, 1 mM CaCl2, pH 7.4, 37 C, 1 h; protein coated 2 pmol/well, 3% BSA block, PBST washes. The conditions noted are these: protein: recombinant; tags: His tag implied (pET28a, Ni-NTA); predicted hairpin (9-50) and stem-loops (52-69) linked by a T.

Series [3] addresses T2, rhHMGB2 (UniProt P26583 1-209).
T2 sequence: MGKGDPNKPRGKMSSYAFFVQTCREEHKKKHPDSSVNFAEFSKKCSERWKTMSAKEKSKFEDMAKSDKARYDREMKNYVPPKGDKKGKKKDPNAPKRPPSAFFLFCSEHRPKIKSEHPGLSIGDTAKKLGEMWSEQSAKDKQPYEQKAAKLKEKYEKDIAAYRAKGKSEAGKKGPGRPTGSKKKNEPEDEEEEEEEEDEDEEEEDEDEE
Kind of series: microplate aptamer binding assay; 1 mM Mg2+, 1 mM Ca2+; 5 nM aptamer; SHMCK: 20 mM Hepes, 120 mM NaCl, 5 mM KCl, 1 mM MgCl2, 1 mM CaCl2, pH 7.4, 37 C, 1 h; protein coated 2 pmol/well, 3% BSA block, PBST washes. The settings on record: protein: commercial; predicted hairpin (9-50) and stem-loops (52-69) linked by a T.

rhHMGB1, sequence (P09429 whole entry): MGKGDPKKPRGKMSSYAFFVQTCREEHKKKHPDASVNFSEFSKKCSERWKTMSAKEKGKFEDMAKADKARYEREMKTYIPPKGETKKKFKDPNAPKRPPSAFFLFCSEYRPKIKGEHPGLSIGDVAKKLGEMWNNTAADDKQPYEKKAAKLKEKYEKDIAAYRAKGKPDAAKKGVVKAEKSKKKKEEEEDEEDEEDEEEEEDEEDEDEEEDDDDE

B1: H-ap25 (structured_DNA)
DNA: GGACAAGAATCACCGCTCTGGGTTTGGCGTCGGGCCTGGCGAAAGGTGGTTGTGCGGAGAGAGCGTACAGGAGGCATACAG
With B1, the Kd in series [1] was 8.2 ± 0.53 nM. The binding result in series [2] and in series [3] was “no binding” each time.
